Numbered stars: 1 amine (or outer) side, 2 acyl side, 3 side chain; on linkers, the order of the positions; unused ones are H or OH. Bridge positions count the residues as written; N and C are the ends. Square brackets hold non-standard residues; d marks the D form. Side chains are listed from the residue outwards. Ends that are not written are not given here. * marks the point of attachment. C18 diacid = O=C(O)CCCCCCCCCCCCCCCCC(=O)*; γGlu = O=C(O)[C@H](CCC(=O)[*:2])N[*:1]; Aib = CC(C)(N)C(=O)O
T1: human calcitonin receptor (human, UniProt P30988 25-474)
T1 sequence (looked up): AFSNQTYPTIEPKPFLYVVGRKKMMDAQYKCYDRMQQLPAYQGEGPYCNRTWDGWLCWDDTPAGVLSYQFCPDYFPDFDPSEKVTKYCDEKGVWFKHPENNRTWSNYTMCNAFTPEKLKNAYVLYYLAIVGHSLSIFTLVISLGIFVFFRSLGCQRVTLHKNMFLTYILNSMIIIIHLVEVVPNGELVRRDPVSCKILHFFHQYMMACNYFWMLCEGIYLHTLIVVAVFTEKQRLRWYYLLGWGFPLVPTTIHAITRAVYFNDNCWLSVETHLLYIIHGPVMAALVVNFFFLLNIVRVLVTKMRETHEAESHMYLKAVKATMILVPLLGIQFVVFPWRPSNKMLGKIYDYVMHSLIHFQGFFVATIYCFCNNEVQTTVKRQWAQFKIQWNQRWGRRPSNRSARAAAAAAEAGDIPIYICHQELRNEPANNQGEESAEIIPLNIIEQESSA

T2: human amylin receptor (calcitonin receptor co-expressed with receptor activity modifying protein, RAMP3) (human, UniProt P30988 25-474; O60896 24-148)
T2 sequence (looked up) 1: T1 sequence (looked up)
T2 sequence (looked up) 2: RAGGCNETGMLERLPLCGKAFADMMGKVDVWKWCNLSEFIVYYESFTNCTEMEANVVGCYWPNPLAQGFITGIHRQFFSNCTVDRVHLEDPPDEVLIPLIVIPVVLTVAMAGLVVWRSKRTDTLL

B1: Peptide 71 (SEQ ID NO: 71) (peptide)
peptide: {C18 diacid}-[γGlu]KCNTATCATQRLANFLVHSS[Aib]NFGPILPPTRVGSNTY-NH2
modifications: disulfide 3-8
SMILES: CC[C@H](C)[C@H](NC(=O)[C@@H]1CCCN1C(=O)CNC(=O)[C@H](Cc1ccccc1)NC(=O)[C@H](CC(N)=O)NC(=O)C(C)(C)NC(=O)[C@H](CO)NC(=O)[C@H](CO)NC(=O)[C@H](Cc1c[nH]cn1)NC(=O)[C@@H](NC(=O)[C@H](CC(C)C)NC(=O)[C@H](Cc1ccccc1)NC(=O)[C@H](CC(N)=O)NC(=O)[C@H](C)NC(=O)[C@H](CC(C)C)NC(=O)[C@H](CCCNC(=N)N)NC(=O)[C@H](CCC(N)=O)NC(=O)[C@@H](NC(=O)[C@H](C)NC(=O)[C@@H]1CSSC[C@H](NC(=O)[C@H](CCCCN)NC(=O)CC[C@H](NC(=O)CCCCCCCCCCCCCCCCC(=O)O)C(=O)O)C(=O)N[C@@H](CC(N)=O)C(=O)N[C@@H]([C@@H](C)O)C(=O)N[C@@H](C)C(=O)N[C@@H]([C@@H](C)O)C(=O)N1)[C@@H](C)O)C(C)C)C(=O)N[C@@H](CC(C)C)C(=O)N1CCC[C@H]1C(=O)N1CCC[C@H]1C(=O)N[C@H](C(=O)N[C@@H](CCCNC(=N)N)C(=O)N[C@H](C(=O)NCC(=O)N[C@@H](CO)C(=O)N[C@@H](CC(N)=O)C(=O)N[C@H](C(=O)N[C@@H](Cc1ccc(O)cc1)C(N)=O)[C@@H](C)O)C(C)C)[C@@H](C)O
B2: Peptide 72 (SEQ ID NO: 72) (peptide)
peptide: K([γGlu-γGlu-C18 diacid])CNTATCATQRLANFLVHSS[Aib]NFGPILPPTNVGSRTY-NH2
modifications: disulfide 2-7; N-terminus assumed
SMILES: CC[C@H](C)[C@H](NC(=O)[C@@H]1CCCN1C(=O)CNC(=O)[C@H](Cc1ccccc1)NC(=O)[C@H](CC(N)=O)NC(=O)C(C)(C)NC(=O)[C@H](CO)NC(=O)[C@H](CO)NC(=O)[C@H](Cc1c[nH]cn1)NC(=O)[C@@H](NC(=O)[C@H](CC(C)C)NC(=O)[C@H](Cc1ccccc1)NC(=O)[C@H](CC(N)=O)NC(=O)[C@H](C)NC(=O)[C@H](CC(C)C)NC(=O)[C@H](CCCNC(=N)N)NC(=O)[C@H](CCC(N)=O)NC(=O)[C@@H](NC(=O)[C@H](C)NC(=O)[C@@H]1CSSC[C@H](NC(=O)[C@@H](N)CCCCNC(=O)CC[C@H](NC(=O)CC[C@H](NC(=O)CCCCCCCCCCCCCCCCC(=O)O)C(=O)O)C(=O)O)C(=O)N[C@@H](CC(N)=O)C(=O)N[C@@H]([C@@H](C)O)C(=O)N[C@@H](C)C(=O)N[C@@H]([C@@H](C)O)C(=O)N1)[C@@H](C)O)C(C)C)C(=O)N[C@@H](CC(C)C)C(=O)N1CCC[C@H]1C(=O)N1CCC[C@H]1C(=O)N[C@H](C(=O)N[C@@H](CC(N)=O)C(=O)N[C@H](C(=O)NCC(=O)N[C@@H](CO)C(=O)N[C@@H](CCCNC(=N)N)C(=O)N[C@H](C(=O)N[C@@H](Cc1ccc(O)cc1)C(N)=O)[C@@H](C)O)C(C)C)[C@@H](C)O
B3: Peptide 73 (SEQ ID NO: 73) (peptide)
peptide: K([γGlu-C18 diacid])KCNTATCATQRLANFLVHSS[Aib]NFGPILPPTNVGSRTY-NH2
modifications: disulfide 3-8; N-terminus assumed
SMILES: CC[C@H](C)[C@H](NC(=O)[C@@H]1CCCN1C(=O)CNC(=O)[C@H](Cc1ccccc1)NC(=O)[C@H](CC(N)=O)NC(=O)C(C)(C)NC(=O)[C@H](CO)NC(=O)[C@H](CO)NC(=O)[C@H](Cc1c[nH]cn1)NC(=O)[C@@H](NC(=O)[C@H](CC(C)C)NC(=O)[C@H](Cc1ccccc1)NC(=O)[C@H](CC(N)=O)NC(=O)[C@H](C)NC(=O)[C@H](CC(C)C)NC(=O)[C@H](CCCNC(=N)N)NC(=O)[C@H](CCC(N)=O)NC(=O)[C@@H](NC(=O)[C@H](C)NC(=O)[C@@H]1CSSC[C@H](NC(=O)[C@H](CCCCN)NC(=O)[C@@H](N)CCCCNC(=O)CC[C@H](NC(=O)CCCCCCCCCCCCCCCCC(=O)O)C(=O)O)C(=O)N[C@@H](CC(N)=O)C(=O)N[C@@H]([C@@H](C)O)C(=O)N[C@@H](C)C(=O)N[C@@H]([C@@H](C)O)C(=O)N1)[C@@H](C)O)C(C)C)C(=O)N[C@@H](CC(C)C)C(=O)N1CCC[C@H]1C(=O)N1CCC[C@H]1C(=O)N[C@H](C(=O)N[C@@H](CC(N)=O)C(=O)N[C@H](C(=O)NCC(=O)N[C@@H](CO)C(=O)N[C@@H](CCCNC(=N)N)C(=O)N[C@H](C(=O)N[C@@H](Cc1ccc(O)cc1)C(N)=O)[C@@H](C)O)C(C)C)[C@@H](C)O
B4: Peptide 74 (SEQ ID NO: 74) (peptide)
peptide: K([γGlu-γGlu-C18 diacid])KCNTATCATQRLANFLVHSS[Aib]NFGPILPPTNVGSRTY-NH2
modifications: disulfide 3-8; N-terminus assumed
SMILES: CC[C@H](C)[C@H](NC(=O)[C@@H]1CCCN1C(=O)CNC(=O)[C@H](Cc1ccccc1)NC(=O)[C@H](CC(N)=O)NC(=O)C(C)(C)NC(=O)[C@H](CO)NC(=O)[C@H](CO)NC(=O)[C@H](Cc1c[nH]cn1)NC(=O)[C@@H](NC(=O)[C@H](CC(C)C)NC(=O)[C@H](Cc1ccccc1)NC(=O)[C@H](CC(N)=O)NC(=O)[C@H](C)NC(=O)[C@H](CC(C)C)NC(=O)[C@H](CCCNC(=N)N)NC(=O)[C@H](CCC(N)=O)NC(=O)[C@@H](NC(=O)[C@H](C)NC(=O)[C@@H]1CSSC[C@H](NC(=O)[C@H](CCCCN)NC(=O)[C@@H](N)CCCCNC(=O)CC[C@H](NC(=O)CC[C@H](NC(=O)CCCCCCCCCCCCCCCCC(=O)O)C(=O)O)C(=O)O)C(=O)N[C@@H](CC(N)=O)C(=O)N[C@@H]([C@@H](C)O)C(=O)N[C@@H](C)C(=O)N[C@@H]([C@@H](C)O)C(=O)N1)[C@@H](C)O)C(C)C)C(=O)N[C@@H](CC(C)C)C(=O)N1CCC[C@H]1C(=O)N1CCC[C@H]1C(=O)N[C@H](C(=O)N[C@@H](CC(N)=O)C(=O)N[C@H](C(=O)NCC(=O)N[C@@H](CO)C(=O)N[C@@H](CCCNC(=N)N)C(=O)N[C@H](C(=O)N[C@@H](Cc1ccc(O)cc1)C(N)=O)[C@@H](C)O)C(C)C)[C@@H](C)O
B5: Peptide 75 (SEQ ID NO: 75) (peptide)
peptide: K([γGlu-γGlu-C18 diacid])CNTATCATQRLANFLRHSS[Aib]NFGPILPPTNVGSNTY-NH2
modifications: disulfide 2-7; N-terminus assumed
SMILES: CC[C@H](C)[C@H](NC(=O)[C@@H]1CCCN1C(=O)CNC(=O)[C@H](Cc1ccccc1)NC(=O)[C@H](CC(N)=O)NC(=O)C(C)(C)NC(=O)[C@H](CO)NC(=O)[C@H](CO)NC(=O)[C@H](Cc1c[nH]cn1)NC(=O)[C@H](CCCNC(=N)N)NC(=O)[C@H](CC(C)C)NC(=O)[C@H](Cc1ccccc1)NC(=O)[C@H](CC(N)=O)NC(=O)[C@H](C)NC(=O)[C@H](CC(C)C)NC(=O)[C@H](CCCNC(=N)N)NC(=O)[C@H](CCC(N)=O)NC(=O)[C@@H](NC(=O)[C@H](C)NC(=O)[C@@H]1CSSC[C@H](NC(=O)[C@@H](N)CCCCNC(=O)CC[C@H](NC(=O)CC[C@H](NC(=O)CCCCCCCCCCCCCCCCC(=O)O)C(=O)O)C(=O)O)C(=O)N[C@@H](CC(N)=O)C(=O)N[C@@H]([C@@H](C)O)C(=O)N[C@@H](C)C(=O)N[C@@H]([C@@H](C)O)C(=O)N1)[C@@H](C)O)C(=O)N[C@@H](CC(C)C)C(=O)N1CCC[C@H]1C(=O)N1CCC[C@H]1C(=O)N[C@H](C(=O)N[C@@H](CC(N)=O)C(=O)N[C@H](C(=O)NCC(=O)N[C@@H](CO)C(=O)N[C@@H](CC(N)=O)C(=O)N[C@H](C(=O)N[C@@H](Cc1ccc(O)cc1)C(N)=O)[C@@H](C)O)C(C)C)[C@@H](C)O
B6: Peptide 76 (SEQ ID NO: 76) (peptide)
peptide: K([γGlu-C18 diacid])CNTATCATQRLANFLRHSS[Aib]NFGPILPPTRVGSNTY-NH2
modifications: disulfide 2-7; N-terminus assumed
SMILES: CC[C@H](C)[C@H](NC(=O)[C@@H]1CCCN1C(=O)CNC(=O)[C@H](Cc1ccccc1)NC(=O)[C@H](CC(N)=O)NC(=O)C(C)(C)NC(=O)[C@H](CO)NC(=O)[C@H](CO)NC(=O)[C@H](Cc1c[nH]cn1)NC(=O)[C@H](CCCNC(=N)N)NC(=O)[C@H](CC(C)C)NC(=O)[C@H](Cc1ccccc1)NC(=O)[C@H](CC(N)=O)NC(=O)[C@H](C)NC(=O)[C@H](CC(C)C)NC(=O)[C@H](CCCNC(=N)N)NC(=O)[C@H](CCC(N)=O)NC(=O)[C@@H](NC(=O)[C@H](C)NC(=O)[C@@H]1CSSC[C@H](NC(=O)[C@@H](N)CCCCNC(=O)CC[C@H](NC(=O)CCCCCCCCCCCCCCCCC(=O)O)C(=O)O)C(=O)N[C@@H](CC(N)=O)C(=O)N[C@@H]([C@@H](C)O)C(=O)N[C@@H](C)C(=O)N[C@@H]([C@@H](C)O)C(=O)N1)[C@@H](C)O)C(=O)N[C@@H](CC(C)C)C(=O)N1CCC[C@H]1C(=O)N1CCC[C@H]1C(=O)N[C@H](C(=O)N[C@@H](CCCNC(=N)N)C(=O)N[C@H](C(=O)NCC(=O)N[C@@H](CO)C(=O)N[C@@H](CC(N)=O)C(=O)N[C@H](C(=O)N[C@@H](Cc1ccc(O)cc1)C(N)=O)[C@@H](C)O)C(C)C)[C@@H](C)O

What follows are binders tested against T1, human calcitonin receptor (assay: cell-based or functional assay).

Point of comparison: B2, “EC50 (cAMP production)” value 4 nM. Against it:
- B1 — 2.9-fold lower, 1.39 nM
- B3 — 2.2-fold lower, 1.82 nM
- B4 — within 1.5-fold, 4.57 nM
- B5 — 4-fold higher, 16 nM
- B6 — 5.6-fold higher, 22.3 nM

Each binder was assayed against T2, human amylin receptor (calcitonin …) (assay: cell-based or functional assay).

Point of comparison: B6, “EC50 (cAMP production)” value 0.209 nM. Against it:
- B1 — within 1.5-fold, 0.211 nM
- B2 — within 1.5-fold, 0.227 nM
- B3 — within 1.5-fold, 0.256 nM
- B4 — 1.7-fold higher, 0.356 nM
- B5 — within 1.5-fold, 0.161 nM

Point of comparison: B1, “Ratio (EC50 hCTR / EC50 hAMYR3)” value 7. Against it:
- B2 — higher, 18
- B3 — the same, 7
- B4 — higher, 13
- B5 — higher, 99
- B6 — higher, 107
